One assay concerns the target HLA-B*83:01. Briefly: IEDB peptide-MHC binding, purified MHC/competitive/fluorescence; filed as Kd, often an IC50 or EC50 that approximates it; ≥ and ≤ were set here for values at or beyond the usual limits of such assays. The settings on record: source organism: Salmonella enterica subsp. enterica serovar Typhimurium str. LT2.
Another assay has as its target HLA-B*45:06. Described as above. The settings on record: source organism: Salmonella enterica subsp. enterica serovar Typhimurium str. LT2.
The next assay deals with HLA-A*02:06. The assay is described as above. The settings on record: source organism: Salmonella enterica subsp. enterica serovar Typhimurium str. LT2.
Another assay concerns the target HLA-B*15:17. Described as above. The settings on record: source organism: Salmonella enterica subsp. enterica serovar Typhimurium str. LT2.
The next assay has as its target HLA-A*68:23. The assay is described as above. The settings on record: source organism: Salmonella enterica subsp. enterica serovar Typhimurium str. LT2.
The next assay has as its target HLA-B*15:42. Described as above. The settings on record: source organism: Salmonella enterica subsp. enterica serovar Typhimurium str. LT2.
Another assay deals with HLA-A*02:03. The description is as above. The settings on record: source organism: Salmonella enterica subsp. enterica serovar Typhimurium str. LT2.
A further assay concerns the target HLA-B*15:01. The assay is described as above. The settings on record: source organism: Salmonella enterica subsp. enterica serovar Typhimurium str. LT2.
A further assay addresses HLA-A*02:01. In words: IEDB peptide-MHC binding, purified MHC/direct/fluorescence; filed as Kd, often an IC50 or EC50 that approximates it; ≥ and ≤ were set here for values at or beyond the usual limits of such assays. The settings on record: source organism: Salmonella enterica.
The next assay addresses HLA-B*51:01. The description is as above. The settings on record: source organism: Salmonella enterica subsp. enterica serovar Typhimurium str. LT2.

From the Immune Epitope Database (IEDB) come the findings set out here.

As usually defined, the Kd is the free concentration of one partner at which half of the binding sites on the other are occupied at equilibrium, for simple one-to-one binding. Read a low Kd as tighter binding. As to FPASHMATY, the dissociation constant (Kd) is 220 nM in the assay with HLA-B*83:01; not below 5 µM with HLA-B*45:06; 1290 nM in the assay with HLA-A*02:06; not below 20 µM with HLA-B*15:17; 6 nM with HLA-A*68:23; not below 5 µM with HLA-B*15:42. In addition, the Kd was not below 20 µM in the assay with HLA-A*02:03, 334 nM with HLA-B*15:01, not below 20 µM with HLA-A*02:01 and not below 20 µM with HLA-B*51:01.
